Data reported in patent US20160041182A1 (Janssen / Centocor, published 2016).
Where a chain is given by its changes, count along the chain named.

T1: mouse IL-17A (mouse, UniProt Q62386 26-158, limits assumed)
T1 construct: In SPR it was injected in solution, and no biotinylation is mentioned there; also called mIL-17A; mIL17A
T1 sequence (looked up): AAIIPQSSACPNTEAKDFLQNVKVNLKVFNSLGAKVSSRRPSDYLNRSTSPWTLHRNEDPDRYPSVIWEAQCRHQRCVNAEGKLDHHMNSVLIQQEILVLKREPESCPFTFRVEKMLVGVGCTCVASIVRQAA

B1: TP1KR9P61-G4 (designed binder)
chain: MLPAPKNLVVSRVTEDSARLSWTAPDAAFDSFAIEYFEDWWSGEAIVLTVPGSERSYDLTGLKPGTEYAVSIRGVKGGYPSAPLSAIFTT
notes: also called TCL14-His fusion protein
B2: TP1KR9P61-A2 (designed binder)
chain: B1 chain with Y79M
notes: as for B1
B3: TP1KR9P61-A7 (designed binder)
chain: B1 chain with A69S, A82S
notes: as for B1
B4: TP1KR9P61-E2 (designed binder)
chain: B1 chain with Y79M, A82P
notes: as for B1
B5: TP1KR9P62-A2 (designed binder)
chain: B1 chain with P5L, R19H, F37S, W40Y, S42L, A69G, A82P
notes: as for B1
B6: TP1KR9P62-C3 (designed binder)
chain: B1 chain with A69S, S71T, Y79P, A82S
notes: as for B1
B7: TP1KR9P62-C6 (designed binder)
chain: B1 chain with Y57C, A69S, S71T, A82S
notes: as for B1
B8: TP1KR9P62-D4 (designed binder)
chain: B1 chain with A33G, E35I, S42A, A69G, Y79P, A82R
notes: as for B1
B9: TP1KR9P62-D8 (designed binder)
chain: B1 chain with A69G, Y79L, P80A, A82P
notes: as for B1
B10: TP1KR9P62-E3 (designed binder)
chain: B1 chain with A33G, W40Y, S42T
notes: as for B1
B11: TP1KR9P62-H10 (designed binder)
chain: B1 chain with A69S, Y79H, A82V
notes: as for B1
B12: TP1KR9P62-D3 (designed binder)
chain: MLPAPKNLVVSRVTEDSARLSWTAPDAAFDSFAIEYFEDWWSGEAIVLTVPGSERSYDLTLKPGTEYSVSIRGVKGGYPSSPLSAIFTT
notes: as for B1

Molecular target: T1, mouse IL-17A
Test: SPR (ProteOn XPR-36), clone amine-coupled on chip, mIL-17A in solution, 1:1 Langmuir fit
Experimental: The affinities of select molecules binding to mIL-17A were measured using surface Plasmon resonance using a ProteOn XPR-36 instrument (Bio-Rad). Purified molecules were directly immobilized on the chip via amine coupling with varying densities (100˜300 Rus) at pH 5.0 and a flow rate of 30 μL/min for 5 minutes mIL-17A at 100 nM diluted in a 3-fold concentration series was tested for their binding to different molecules on the chip surface. The dissociation phases for all concentrations of all samples was monitored for 1˜2 hours at a flow rate of 100 μL/min depending on their off-rate. A buffer sample was injected to monitor the baseline stability and the surface was not regenerated for further use. The response data for all concentration series for each of the different surfaces of the scaffold molecules selected from the TLC14 library were globally fit to a 1:1 simple langmuir binding model to extract estimates of the kinetic (kₒₙ, koff) and affinity (KD) constants. As summarized in Table 9, affinities of the scaffold molecules specifically binding mIL-17A were at a subnanomolar range. Sequences of select mIL-17A binders are shown in SEQ ID NOS: 85-96, and the sequences of the C and F beta-strands and the CD and the FG loops in Table 10.

Binder | Kd [nM] | koff [s⁻¹] | kon [M⁻¹ s⁻¹]
B1 | 0.309 | 5.02e-05 | 162000
B2 | 0.287 | 3.93e-05 | 137000
B3 | 0.421 | 3.46e-05 | 82000
B4 | 0.27 | 3.96e-05 | 147000
B5 | 0.0531 | 2.17e-05 | 408000
B6 | 0.0374 | 1.05e-05 | 281000
B7 | 0.0212 | 1.2e-05 | 568000
B8 | ≤ 0.0952 | ≤ 1e-05 | 105000
B9 | 0.0389 | 1.48e-05 | 381000
B10 | 0.464 | 5.26e-05 | 113000
B11 | 0.0482 | 2.11e-05 | 438000
B12 | 0.554 | 6.07e-05 | 110000

Molecular target: T1, mouse IL-17A
Test: competition ELISA: purified His-tagged clone against biotinylated mIL-17A binding to coated mIL-17A receptor Fc
Experimental: An inhibition assay was performed to determine if the round 5 and 9 panning outputs against mouse IL-17A (mIL-17A) inhibited binding of mIL-17A to the mIL-17A receptor. Maxisorp plates were coated with 0.2 μg/ml mIL-17A receptor Fc fusion (R&D Systems, Minneapolis, Minn.) overnight, washed with Phosphate-Buffered Saline (PBS), pH 7.4 with 0.05% Tween-20 […] and blocked with 2% BSA, 5% Sucrose in PBS. 10 ng/ml biotinylated-mIL17A (b-mIL-17A) was added into the clarified bacterial lysates diluted 1:50 in 1% BSA in PBS, and the mixtures were incubated for 20 minutes. The blocked plates were washed and the bacterial lysates/b-mIL-17A incubations were transferred onto the plates. The plates were incubated for an additional hour, washed with PB ST, and the biotinylated protein detected with streptavidin-HRP (Jackson Immunoresearch, West Grove, Pa.) and OPD colorimetric substrate (Sigma-Aldrich, St. Louis, Mo.). Absorbance at 490 nm was read using an M5 plate reader (Molecular Devices, Sunnyvale, Calif.) and the data converted to % inhibition. Percent inhibition for mIL-17A:mIL-17 receptor binding was defined as 100−(sample/negative control×100).
Select bacterial lysates containing the scaffold molecules inhibiting the mIL-17A:mIL-17 receptor interaction were further characterized in a dose response inhibition assay using the protocol described above, except that 100 μl of purified TCL14-His (Ni-NTA) fusion proteins were used in the assays between concentrations of 10 μM to 56 pM. IC50 values were calculated from the dose response curves using a sigmoidal dose response fit.

Binder | IC50 [nM]
B1 | 0.00883
B2 | 0.0339
B3 | 0.0558
B4 | 0.0428
B5 | 0.261
B6 | 0.117
B7 | 0.109
B8 | 0.242
B9 | 0.427
B10 | 0.0642
B11 | 0.302
B12 | 0.0912
